# Measurements reported in article PMC5074314, “Maltase protein of Ogataea (Hansenula) polymorpha is a counterpart to the resurrected ancestor protein ancMALS of yeast maltases and isomaltases” (Yeast (Chichester, England), 2016).
# T1: Op MAL1 (maltase protein MAL1 of Ogataea polymorpha) (Ogataea angusta, UniProt Q9P8G8)
# T1 sequence (Q9P8G8 1-564): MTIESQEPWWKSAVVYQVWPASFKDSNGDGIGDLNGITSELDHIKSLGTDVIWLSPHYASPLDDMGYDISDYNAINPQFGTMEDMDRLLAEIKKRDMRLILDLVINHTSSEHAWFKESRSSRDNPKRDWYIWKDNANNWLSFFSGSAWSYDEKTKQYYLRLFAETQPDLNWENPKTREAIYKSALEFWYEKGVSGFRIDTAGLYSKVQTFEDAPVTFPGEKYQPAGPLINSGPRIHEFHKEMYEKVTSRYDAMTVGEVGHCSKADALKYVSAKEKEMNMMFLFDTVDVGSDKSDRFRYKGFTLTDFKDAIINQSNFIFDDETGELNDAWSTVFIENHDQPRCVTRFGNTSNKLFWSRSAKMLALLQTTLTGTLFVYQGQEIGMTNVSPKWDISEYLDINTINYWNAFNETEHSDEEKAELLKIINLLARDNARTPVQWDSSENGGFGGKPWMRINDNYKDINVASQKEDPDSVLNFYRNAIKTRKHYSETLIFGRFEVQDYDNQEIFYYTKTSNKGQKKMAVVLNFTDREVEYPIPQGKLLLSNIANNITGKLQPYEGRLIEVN
# B1: Op MAL1 (maltase protein MAL1 of Ogataea polymorpha) (Ogataea angusta) (protein)
# chain: T1 sequence (Q9P8G8 1-564)
# Columns and labels:
# [1] = biological target: T1, Op MAL1 (maltase protein MAL1 of Ogataea polymorpha); experiment: inhibition of α-pNPG hydrolysis (p-nitrophenol release); assay type: biochemical; conditions: competitive; 0.1-3.0 mM α-pNPG; 100 mM K-phosphate pH 6.5, 0.1 mM EDTA, 37 °C; 5 min pre-incubation; read-out: K i (mM) of Op maltase
# [2] = substrate: O=[N+]([O-])c1ccc(O[C@H]2O[C@H](CO)[C@@H](O)[C@H](O)[C@H]2O)cc1; experiment: purified protein; conditions: 100 mM K-phosphate pH 6.5, 0.1 mM EDTA, 37 °C
# [3] = substrate: CO[C@H]1O[C@H](CO)[C@@H](O)[C@H](O)[C@H]1O; experiment: initial rate of glucose release; assay type: biochemical, Ogataea angusta; conditions: 100 mM K-phosphate pH 6.5, 0.1 mM EDTA, 37 °C
# Text: (§1) initial rate of glucose release on Op MAL1 (maltase protein MAL1 of Ogataea polymorpha)
# [4] = substrate: OC[C@H]1O[C@@](CO)(O[C@H]2O[C@H](CO)[C@@H](O)[C@H](O)[C@H]2O)[C@@H](O)[C@@H]1O; experiment: initial rate of glucose release; assay type: biochemical, Ogataea angusta; conditions: 100 mM K-phosphate pH 6.5, 0.1 mM EDTA, 37 °C
# Text: as §1
Molecule,Ki [1] [mM],Km [2] [mM],kcat [2] [s⁻¹],kcat/Km [2] [M⁻¹ s⁻¹],Km [3] [mM],kcat [3] [s⁻¹],kcat/Km [3] [M⁻¹ s⁻¹],Km [4] [mM],kcat [4] [s⁻¹],kcat/Km [4] [M⁻¹ s⁻¹]
OC[C@H]1OC(O)[C@H](O)[C@@H](O)[C@@H]1O (stereo partly drawn) [D-Glucose],5.1 ± 0.7,,,,,,,,,
C[C@H]1O[C@H](O[C@H]2[C@H](O)[C@@H](O)[C@@H](O[C@H]3[C@H](O)[C@@H](O)C(O)O[C@@H]3CO)O[C@@H]2CO)[C@H](O)[C@@H](O)[C@@H]1N[C@H]1C=C(CO)[C@@H](O)[C@H](O)[C@H]1O (some centres unmarked) [Acarbose],0.0065 ± 0.0008,,,,,,,,,
B1,,0.52 ± 0.05,141,272000,35.5 ± 3.3,30.1 ± 1.1,848,25.1 ± 2.4,183 ± 6.95,7290
